From PMC6237735
pKd: −log10 of the molar value. Blank lines part the entries; values can stand above or below the substance they belong to.

How the values were obtained:
[1] = tested on: Pa-aIF1* unlabeled (Pyrococcus abyssi); assay: competition; settings: chase of labeled aIF1* from 30S; Anisotropy: 10 mM HEPES pH 7.5, 200 mM NaCl, 10 mM Mg acetate, 0.1% Tween 20, 51 C; toeprinting: 10 mM HEPES pH 7.5, 158 mM NaCl, 20 mM NH4Cl, 13.5 mM Mg …
[2] = tested on: Pa-aIF1* (MDCC-coumarin labeled) (Pyrococcus abyssi); assay: fluorescence anisotropy; settings: aIF1* binding to 30S, no mRNA; Anisotropy: 10 mM HEPES pH 7.5, 200 mM NaCl, 10 mM Mg acetate, 0.1% Tween 20, 51 C; toeprinting: 10 mM HEPES pH 7.5, 158 mM NaCl, 20 mM NH4Cl, 13.5 mM Mg …
[3] = tested on: Pa-aIF1*-K34A (Pyrococcus abyssi); assay: fluorescence anisotropy; settings: Anisotropy: 10 mM HEPES pH 7.5, 200 mM NaCl, 10 mM Mg acetate, 0.1% Tween 20, 51 C; toeprinting: 10 mM HEPES pH 7.5, 158 mM NaCl, 20 mM NH4Cl, 13.5 mM Mg …
[4] = tested on: Pa-aIF1*-R31A (Pyrococcus abyssi); assay: fluorescence anisotropy; settings: Anisotropy: 10 mM HEPES pH 7.5, 200 mM NaCl, 10 mM Mg acetate, 0.1% Tween 20, 51 C; toeprinting: 10 mM HEPES pH 7.5, 158 mM NaCl, 20 mM NH4Cl, 13.5 mM Mg …
[5] = tested on: Pa-aIF1*-Y32A (Pyrococcus abyssi); assay: fluorescence anisotropy; settings: Anisotropy: 10 mM HEPES pH 7.5, 200 mM NaCl, 10 mM Mg acetate, 0.1% Tween 20, 51 C; toeprinting: 10 mM HEPES pH 7.5, 158 mM NaCl, 20 mM NH4Cl, 13.5 mM Mg …
[6] = target: Pyrococcus abyssi small ribosomal subunit (Pa-30S) (Pyrococcus abyssi); assay: fluorescence polarisation; fluorescence anisotropy of coumarin-labeled aIF1* (50 nM) titrated with purified Pa-30S, no mRNA; 51°C; 10 mM HEPES pH 7.5, 200 mM NaCl, 10 mM MgAc, 0.1% Tween 20; quadratic fit
[7] = target: Pyrococcus abyssi small ribosomal subunit (Pa-30S) (Pyrococcus abyssi); assay: fluorescence polarisation; fluorescence anisotropy of coumarin-labeled aIF1 (50 nM for the variants; 13 nM for Pa-aIF1*) titrated with Pa-30S:mRNA complex (30S with a 2-fold molar excess of mRNA); 51°C; 10 mM HEPES pH 7.5, 200 mM NaCl, 10 mM MgAc, 0.1% Tween 20; quadratic fit
[8] = target: Pyrococcus abyssi small ribosomal subunit (Pa-30S) (Pyrococcus abyssi); assay: as above; remark: listed apart in the source
[9] = tested on: Pa-30S small ribosomal subunit;Pa-aIF1* unlabeled (Pyrococcus abyssi;Pyrococcus abyssi); assay: competition; settings: Kd of unlabeled aIF1* for 30S:mRNA; 180 nM mRNA; Anisotropy: 10 mM HEPES pH 7.5, 200 mM NaCl, 10 mM Mg acetate, 0.1% Tween 20, 51 C; toeprinting: 10 mM HEPES pH 7.5, 158 mM NaCl, 20 mM NH4Cl, 13.5 mM Mg …
[10] = tested on: Pa-30S small ribosomal subunit;Pa-aIF1* (MDCC-coumarin labeled) (Pyrococcus abyssi;Pyrococcus abyssi); assay: fluorescence anisotropy; settings: Kd of aIF1* for 30S:mRNA; best fit 0.2 nM; Anisotropy: 10 mM HEPES pH 7.5, 200 mM NaCl, 10 mM Mg acetate, 0.1% Tween 20, 51 C; toeprinting: 10 mM HEPES pH 7.5, 158 mM NaCl, 20 mM NH4Cl, 13.5 mM Mg …
[11] = tested on: Pa-30S small ribosomal subunit;Pa-aIF1*-K34A (Pyrococcus abyssi;Pyrococcus abyssi); assay: fluorescence anisotropy; settings: Anisotropy: 10 mM HEPES pH 7.5, 200 mM NaCl, 10 mM Mg acetate, 0.1% Tween 20, 51 C; toeprinting: 10 mM HEPES pH 7.5, 158 mM NaCl, 20 mM NH4Cl, 13.5 mM Mg …
[12] = tested on: Pa-30S small ribosomal subunit;Pa-aIF1*-R31A (Pyrococcus abyssi;Pyrococcus abyssi); assay: fluorescence anisotropy; settings: Anisotropy: 10 mM HEPES pH 7.5, 200 mM NaCl, 10 mM Mg acetate, 0.1% Tween 20, 51 C; toeprinting: 10 mM HEPES pH 7.5, 158 mM NaCl, 20 mM NH4Cl, 13.5 mM Mg …
[13] = tested on: Pa-30S small ribosomal subunit;Pa-aIF1*-Y32A (Pyrococcus abyssi;Pyrococcus abyssi); assay: fluorescence anisotropy; settings: Anisotropy: 10 mM HEPES pH 7.5, 200 mM NaCl, 10 mM Mg acetate, 0.1% Tween 20, 51 C; toeprinting: 10 mM HEPES pH 7.5, 158 mM NaCl, 20 mM NH4Cl, 13.5 mM Mg …
[14] = tested on: Pa-30S small ribosomal subunit (Pyrococcus abyssi); assay: fluorescence anisotropy; settings: 30S alone; mRNA 8 nM; Anisotropy: 10 mM HEPES pH 7.5, 200 mM NaCl, 10 mM Mg acetate, 0.1% Tween 20, 51 C; toeprinting: 10 mM HEPES pH 7.5, 158 mM NaCl, 20 mM NH4Cl, 13.5 mM Mg …
[15] = tested on: Pa-30S small ribosomal subunit;Pa-aIF1 (Pyrococcus abyssi;Pyrococcus abyssi); assay: fluorescence anisotropy; settings: preformed 30S:aIF1; mRNA 0.5 nM; Anisotropy: 10 mM HEPES pH 7.5, 200 mM NaCl, 10 mM Mg acetate, 0.1% Tween 20, 51 C; toeprinting: 10 mM HEPES pH 7.5, 158 mM NaCl, 20 mM NH4Cl, 13.5 mM Mg …
[16] = target: Pyrococcus abyssi small ribosomal subunit (Pa-30S) (Pyrococcus abyssi)

pKd [6]: 7.92 | pKd [7]: > 9.00 | pKd [8]: 9.70
Substance: Pa-aIF1* (Pyrococcus abyssi aIF1 K45C-C62S labeled with coumarin) (natural protein)

pKd [6]: 7.08 | pKd [7]: > 8.52
Substance: Pa-aIF1*-R31A (natural protein)

pKd [6]: 7.70 | pKd [7]: 7.66
Substance: Pa-aIF1*-Y32A (natural protein)

pKd [6]: < 6.52 | pKd [7]: 7.35
Substance: Pa-aIF1*-K34A (natural protein)

Second part, the substance before the results:

Substance: Pa-30S (16S rRNA in small ribosomal subunit)
pKd [1]: 7.40 | pKd [2]: 7.92 | pKd [3]: < 6.52 | pKd [4]: 7.08 | pKd [5]: 7.70

Substance: AUUUGGAGGUGAUUUAAAUGCCAAAG [wt-aEF1A mRNA 26-mer, unlabeled]
pKd [9]: 9.40 | pKd [10]: > 9.00 | pKd [11]: 7.35 | pKd [12]: > 8.52 | pKd [13]: 7.66

Substance: AUUUGGAGGUGAUUUAAAUGCCAAAG [wt-aEF1A-mRNA 26-mer]
pKd [14]: 8.48 | pKd [15]: 10.15

Substance: Pa-aIF1-K34A (natural protein)
factor concentration needed for a toeprinting pattern of 30S:mRNA:aIF1 like that of wt-Pa-aIF1 [16]: 8 fold
